This passage reports stoichiometry N results from publication doi:10.1101/2022.03.21.485124.

Holding throughout (experiment): SEC
Background: In gel filtration, larger molecules generally elute earlier.

The target of assay [1] is human CD81 large extracellular loop domain, mutant D139N (human).
Assay [2] deals with human CD81 large extracellular loop domain, mutant E188Q (human).
Assay [3] concerns the target wild-type human CD81 large extracellular loop domain (wt-hCD81LEL) (human).

With “human CD81 large extracellular loop domain, mutant D139N (domain or fragment)”, the stoichiometry N in assay [1] came out at 2.
With “human CD81 large extracellular loop domain, mutant E188Q (domain or fragment)”, the stoichiometry N in assay [2] came to 2.
On to “wild-type human CD81 large extracellular loop domain (wt-hCD81LEL) (domain or fragment)”, for which, in assay [3], the stoichiometry N is 2.

By stoichiometry N is commonly meant the number of molecules, sites or subunits per partner or assembly.
